Consider 25 molecules from patent US20110172153A1 (GENERAL HOSPITAL, published 2011).

Assay [1] deals with T1, rat parathyroid hormone receptor (PTHR) (rat, UniProt P25961 27-591).
T1 sequence: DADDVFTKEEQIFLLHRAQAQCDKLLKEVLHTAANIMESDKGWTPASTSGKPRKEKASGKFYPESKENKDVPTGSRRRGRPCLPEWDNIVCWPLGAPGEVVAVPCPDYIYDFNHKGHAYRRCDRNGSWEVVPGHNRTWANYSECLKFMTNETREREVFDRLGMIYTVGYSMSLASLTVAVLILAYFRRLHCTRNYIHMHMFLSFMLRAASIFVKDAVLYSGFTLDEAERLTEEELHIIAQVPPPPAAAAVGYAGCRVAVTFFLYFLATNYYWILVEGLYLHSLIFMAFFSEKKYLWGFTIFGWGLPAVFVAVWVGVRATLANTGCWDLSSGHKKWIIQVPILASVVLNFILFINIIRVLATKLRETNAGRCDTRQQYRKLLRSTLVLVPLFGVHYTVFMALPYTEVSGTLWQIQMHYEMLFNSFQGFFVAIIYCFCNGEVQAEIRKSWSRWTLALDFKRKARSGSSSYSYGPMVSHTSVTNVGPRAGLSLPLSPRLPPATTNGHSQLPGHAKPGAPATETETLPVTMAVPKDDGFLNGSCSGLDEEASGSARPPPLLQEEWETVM
The assay can be described thus: cell-based or functional assay.

The target of assay [2] is T2, human parathyroid hormone receptor (PTHR) (human, UniProt Q03431 27-593).
T2 construct: Assayed in membranes of HKRK-B7 cells or of transiently transfected COS-7 cells, or on intact HKRK-B7/HKRK-B64/COS-7 cells; RG = co-transfected with negative-dominant Galpha-s; R0 = receptor alone plus GTPgammaS; also called hPTHR; human PTH receptor
T2 sequence: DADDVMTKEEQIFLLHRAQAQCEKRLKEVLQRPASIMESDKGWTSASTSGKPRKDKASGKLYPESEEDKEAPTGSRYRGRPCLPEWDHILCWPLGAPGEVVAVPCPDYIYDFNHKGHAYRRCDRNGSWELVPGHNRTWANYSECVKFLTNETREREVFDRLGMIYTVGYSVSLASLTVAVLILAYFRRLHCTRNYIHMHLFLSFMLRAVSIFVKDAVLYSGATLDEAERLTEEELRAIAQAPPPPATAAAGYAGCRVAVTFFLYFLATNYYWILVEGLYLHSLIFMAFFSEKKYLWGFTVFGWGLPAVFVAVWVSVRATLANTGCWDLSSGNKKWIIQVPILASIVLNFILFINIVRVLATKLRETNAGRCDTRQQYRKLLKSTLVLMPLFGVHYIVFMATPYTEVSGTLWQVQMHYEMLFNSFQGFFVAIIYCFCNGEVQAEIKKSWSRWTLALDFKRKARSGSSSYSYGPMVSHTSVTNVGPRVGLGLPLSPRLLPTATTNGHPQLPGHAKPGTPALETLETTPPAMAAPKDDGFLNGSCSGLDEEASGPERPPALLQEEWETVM
In words: competition radioligand binding, human PIR RG. The protocol:
(§1) Binding Studies. Binding studies were performed using cell membranes as described (Dean et al., Mol Endocrinol 20(4):931-43 (2006)). […] Reactions contained a total membrane protein concentration of 20 to 100 μg/mL, and a total radioactivity concentration of approximately 150,000 cpm/ml. Unlabeled peptide ligands and/or GTPγS (Sigma-Aldrich Inc. St. Louis, Mo.) were added to the reactions as indicated. At the end of the reaction, bound and free radioligand were separated by vacuum filtration using a 96-well vacuum filter plate and vacuum filter apparatus (Multi-Screen system with Durapore HV, […] filters; Millipore Corp., Milford, Mass.); the air-dried filters were then detached from the plate and counted for gamma radioactivity using a gamma counter.
(§2) To assess the capacities of various unlabeled peptide ligands to bind to the G protein-uncoupled and G protein-coupled PTHR conformations (R⁰ and RG, respectively), membranes were prepared from transiently transfected COS-7 cells and the following assay conditions.

For assay [3], the target named is T2, human parathyroid hormone receptor …. The assay can be described thus: competition radioligand binding, hPTHR R0 conformation. How it is done:
as §1, §2

The target is the same in assay [4]. The assay can be described thus: competition radioligand binding, human PIR R0. How it is done:
as §1, §2

Assay [5] has the same target. The assay can be described thus: competition radioligand binding, hPTHR RG conformation. The protocol:
as §1, §2

For assay [6] the target is unchanged. The assay can be described thus: screen, binding to human PIR R0 relative to parent PTHrP(1-28)NH; footnote not given.
Assay [7] shares this target. The assay can be described thus: screen, binding to human PIR RG relative to parent PTHrP(1-28)NH; footnote not given.
Assay [8] has the same target. The assay can be described thus: cell-based or functional assay.

What is called IC50 is the concentration that inhibits the measured activity by half. Higher therefore signals lower potency.

Square brackets hold non-standard residues; d marks the D form. Ends that are not written are not given here. hArg = N=C(N)NCCCC[C@H](N)C(=O)O; Aib = CC(C)(N)C(=O)O

B1: [Ala^1,12,Aib^3,Gln^10,homoarginine^11,Trp^14,Arg^19]human(h)PTH(1-28)NH2 (peptide)
peptide: AV[Aib]EIQLMHQ[hArg]AKWLNSMRRVEWLRKKL-NH2
modifications: N-terminus assumed
SMILES: CC[C@H](C)[C@H](NC(=O)[C@H](CCC(=O)O)NC(=O)C(C)(C)NC(=O)[C@@H](NC(=O)[C@H](C)N)C(C)C)C(=O)N[C@@H](CCC(N)=O)C(=O)N[C@@H](CC(C)C)C(=O)N[C@@H](CCSC)C(=O)N[C@@H](Cc1c[nH]cn1)C(=O)N[C@@H](CCC(N)=O)C(=O)N[C@@H](CCCCNC(=N)N)C(=O)N[C@@H](C)C(=O)N[C@@H](CCCCN)C(=O)N[C@@H](Cc1c[nH]c2ccccc12)C(=O)N[C@@H](CC(C)C)C(=O)N[C@@H](CC(N)=O)C(=O)N[C@@H](CO)C(=O)N[C@@H](CCSC)C(=O)N[C@@H](CCCNC(=N)N)C(=O)N[C@@H](CCCNC(=N)N)C(=O)N[C@H](C(=O)N[C@@H](CCC(=O)O)C(=O)N[C@@H](Cc1c[nH]c2ccccc12)C(=O)N[C@@H](CC(C)C)C(=O)N[C@@H](CCCNC(=N)N)C(=O)N[C@@H](CCCCN)C(=O)N[C@@H](CCCCN)C(=O)N[C@@H](CC(C)C)C(N)=O)C(C)C
Turning to B1, in assay [1], the “acute cAMP in ROS17/2.8 cells, EC50 (FIG. 21A)” value was found to be 0.33 nM and the “cAMP in ROS17/2.8 cells, EC50” value turned out to be 0.37 nM.

B2: Trp^1-M-PTH(1-28) (peptide)
peptide: WV[Aib]EIQLMHQ[hArg]AKWLNSMRRVEWLRKKL
For B2, the “IP3 formation, fold less potent than M-PTH(1-28)” value in assay [1] is 100 fold.

B3: hPTH(1-28)NH2 (peptide)
peptide: SVSEIQLMHNLGKHLNSMERVEWLRKKL-NH2
In the case of B3, in assay [1], the “acute cAMP in ROS17/2.8 cells, EC50 (FIG. 21A)” value turned out to be 7.6 nM and the “cAMP in ROS17/2.8 cells, EC50” value turned out to be 7.39 nM.

B4: A18,22,L25,K26-PTHrP(1-30)NH (peptide)
peptide: AVSEHQLLHDKGKSIQDARRRAFLLKLIAE-NH2
Consider B4, for which the IC50 in assay [2] is 0.05 nM; in assay [3] it was 144 nM; in assay [4], 144 nM; in assay [5], 0.05 nM.

B5: A18,22,26-PTHrP(1-28)NH (peptide)
peptide: AVSEHQLLHDKGKSIQDARRRAFLHALI-NH2
In the case of B5, the “human PIR R0 (% parent)” value in assay [6] is 160 % parent. Also, the “human PIR RG (% parent)” value in assay [7] was determined as 167 % parent.

B6: E18,N22,A26-PTHrP(1-28)NH (peptide)
peptide: AVSEHQLLHDKGKSIQDERRRNFLHALI-NH2
Regarding B6, in assay [6], the “human PIR R0 (% parent)” value is 53.7 % parent. In assay [7], the “human PIR RG (% parent)” value was found to be 140 % parent.

B7: A18,S22,K26-PTHrP(1-28)NH (peptide)
peptide: AVSEHQLLHDKGKSIQDARRRSFLHKLI-NH2
With B7, the “human PIR R0 (% parent)” value in assay [6] was determined as 15 % parent. In addition, the “human PIR RG (% parent)” value in assay [7] was determined as 175 % parent.

B8: E18,W22,A26-PTHrP(1-28)NH (peptide)
peptide: AVSEHQLLHDKGKSIQDERRRWFLHALI-NH2
B8: the “human PIR R0 (% parent)” value in assay [6] was found to be 18.8 % parent. For the same molecule, the “human PIR RG (% parent)” value in assay [7] worked out at 116 % parent.

B9: A18,26,W22-PTHrP(1-28)NH (peptide)
peptide: AVSEHQLLHDKGKSIQDARRRWFLHALI-NH2
As to B9, the “human PIR R0 (% parent)” value in assay [6] amounted to 126 % parent. In addition, the “human PIR RG (% parent)” value in assay [7] was found to be 120 % parent.

B10: A18,26,S22-PTHrP(1-28)NH (peptide)
peptide: AVSEHQLLHDKGKSIQDARRRSFLHALI-NH2
Regarding B10, the “human PIR R0 (% parent)” value in assay [6] was determined as 133 % parent. Further, the “human PIR RG (% parent)” value in assay [7] amounted to 148 % parent.

B11: E18,W22,K26-PTHrP(1-28)NH (peptide)
peptide: AVSEHQLLHDKGKSIQDERRRWFLHKLI-NH2
Take B11: the “human PIR R0 (% parent)” value in assay [6] came to 46.6 % parent. Further, the “human PIR RG (% parent)” value in assay [7] came to 149 % parent.

B12: E18,S22,A26-PTHrP(1-28)NH (peptide)
peptide: AVSEHQLLHDKGKSIQDERRRSFLHALI-NH2
For the molecule B12, in assay [6], the “human PIR R0 (% parent)” value came out at 31.9 % parent. In addition, in assay [7], the “human PIR RG (% parent)” value was 132 % parent.

B13: E18,K22,A26-PTHrP(1-28)NH (peptide)
peptide: AVSEHQLLHDKGKSIQDERRRKFLHALI-NH2
For B13, in assay [6], the “human PIR R0 (% parent)” value was found to be 106 % parent. Besides, the “human PIR RG (% parent)” value in assay [7] stood at 192 % parent.

B14: A18,N22,K26-PTHrP(1-28)NH (peptide)
peptide: AVSEHQLLHDKGKSIQDARRRNFLHKLI-NH2
Consider B14, for which, in assay [6], the “human PIR R0 (% parent)” value was determined as 139 % parent. In assay [7], the “human PIR RG (% parent)” value was found to be 172 % parent.

B15: E18,N22,K26-PTHrP(1-28)NH (peptide)
peptide: AVSEHQLLHDKGKSIQDERRRNFLHKLI-NH2
B15: in assay [6], the “human PIR R0 (% parent)” value was found to be 84.4 % parent. The “human PIR RG (% parent)” value in assay [7] worked out at 147 % parent.

B16: A18,W22,K26-PTHrP(1-28)NH (peptide)
peptide: AVSEHQLLHDKGKSIQDARRRWFLHKLI-NH2
For the molecule B16, the “human PIR R0 (% parent)” value in assay [6] was found to be 136 % parent. In addition, in assay [7], the “human PIR RG (% parent)” value amounted to 115 % parent.

B17: E18,K22,26-PTHrP(1-28)NH (peptide)
peptide: AVSEHQLLHDKGKSIQDERRRKFLHKLI-NH2
For the molecule B17, in assay [6], the “human PIR R0 (% parent)” value came out at 120 % parent. The “human PIR RG (% parent)” value in assay [7] was 208 % parent.

B18: E18,S22,L25,K26-PTHrP(1-28)NH (peptide)
peptide: AVSEHQLLHDKGKSIQDERRRSFLLKLI-NH2
Turning to B18, the IC50 turned out to be 0.11 nM in assay [2] and 2060 nM in assay [4].

B19: E18,L22,K26-PTHrP(1-28)NH (peptide)
peptide: AVSEHQLLHDKGKSIQDERRRLFLHKLI-NH2
On to B19, for which, in assay [6], the “human PIR R0 (% parent)” value turned out to be 64.4 % parent. In addition, in assay [7], the “human PIR RG (% parent)” value came out at 152 % parent.

B20: A18,26,N22-PTHrP(1-28)NH (peptide)
peptide: AVSEHQLLHDKGKSIQDARRRNFLHALI-NH2
Consider B20, for which the “human PIR R0 (% parent)” value in assay [6] was found to be 136 % parent. The “human PIR RG (% parent)” value in assay [7] was 161 % parent.

B21: A18,S22,L25,K26-PTHrP(1-28)NH (peptide)
peptide: AVSEHQLLHDKGKSIQDARRRSFLLKLI-NH2
For the molecule B21, the IC50 was found to be 0.1 nM in assay [2] and 540 nM in assay [4].

B22: A18,26,L22-PTHrP(1-28)NH (peptide)
peptide: AVSEHQLLHDKGKSIQDARRRLFLHALI-NH2
In the case of B22, the “human PIR R0 (% parent)” value in assay [6] worked out at 133 % parent. Further, the “human PIR RG (% parent)” value in assay [7] came out at 163 % parent.

B23: E18,L22,A26-PTHrP(1-28)NH (peptide)
peptide: AVSEHQLLHDKGKSIQDERRRLFLHALI-NH2
Take B23: the “human PIR R0 (% parent)” value in assay [6] is 52.5 % parent. For the same molecule, the “human PIR RG (% parent)” value in assay [7] stood at 125 % parent.

B24: A18,L22,K26-PTHrP(1-28)NH (peptide)
peptide: AVSEHQLLHDKGKSIQDARRRLFLHKLI-NH2
Turning to B24, the “human PIR R0 (% parent)” value in assay [6] is 160 % parent. Further, the “human PIR RG (% parent)” value in assay [7] amounted to 177 % parent.

B25: Mc-hPTH(1-34)OH (peptide)
peptide: AVAEIQLMHQRAKWLNSMRRVEWLRKKLQDVHNF-OH
Regarding B25, in assay [8], the “cAMP in HKRK-B7 cells, EC50” value worked out at 3.25 nM and the “cAMP in HKRK-B7 cells, Max” value stood at 65.5 pm/well.
